Experimental findings from patent publication US20210145933A1 (COMPLEMENT THERAPEUTICS, published 2021) are described below.

For assay [1], the target named is T1, C3b (human, UniProt P01024 23-667; P01024 749-1663).
T1 construct: In the cofactor assays it was plain 'pure C3b protein'; also called pure C3b protein; biotinylated C3b protein
As to the kind of experiment: BLI (OctetRed96), immobilised biotinylated C3b, FH in solution. Here is the method:
(§1) The affinity of CR1a for C3b protein was measured using OctetRed96 System (ForteBio, Pall Corp., USA). Biotinylated C3b protein was diluted in 0.2% PBST to final concentration of 0.4 μg/mL and loaded onto High Precision Streptavidin (SAX) Biosensors (ForteBio, Pall Corp., USA) for 600 s, previously hydrated with the same buffer for 20 min. C3b-loaded sensors were then washed with 0.2% PBST for 150 s (baseline) and dipped into wells containing CR1a in different concentrations ranging from 30.0 μg/mL to 2.6 μg/mL for 600 s (association) followed by wash with 0.2% PBST for 600 s (dissociation). Association and dissociation profiles were recorded and analysed with ForeBio Data Analysis v9 (ForteBio, Pall Corp., USA). The negative control i.e. 0.2% PBST containing well was used in parallel to subtract binding resulting from nonspecific interactions with the sensors. Experiments were performed using the kinetics mode, at 25° C. and sample plates were pre-agitated for 3 min. The binding profiles were globally fitted to 1:1 (one analyte in solution to one binding site on the surface). […] Binding affinities were also determined for native soluble C3b-binding complement regulators Factor H (FH) and FHL-1 to immobilised C3b.

The target of assay [2] is T1, C3b. In words: BLI (OctetRed96), biotinylated C3b on streptavidin (SAX) sensors, FH in solution; the same table prints KD Error (%) 3.0192, Full R^2 0.9770, '167 µgml' under Data Location, FH ~155kDa. How it is done: as §1
Assay [3] deals with T1, C3b. As to the kind of experiment: BLI (OctetRed96), immobilised biotinylated C3b, FHL-1 in solution. Here is the method:
as §1

Assay [4] concerns the target T1, C3b. As to the kind of experiment: BLI (OctetRed96), biotinylated C3b on streptavidin (SAX) sensors, FHL-1 in solution; the same table prints KD Error (%) 3.1325, Full R^2 0.9550, '278 µgml' under Data Location, FHL-1 ~50kDa. Here is the method: as §1
For assay [5], the target named is T1, C3b. As to the kind of experiment: BLI (OctetRed96), biotinylated C3b on streptavidin (SAX) sensors, CR1a in solution; the same table prints KD Error (%) 0.4186, Full R^2 0.8731, '30 µgml' under Data Location. Here is the method: as §1

T1 sequence (P01024 23-667 limits assumed, chain 1 of 2): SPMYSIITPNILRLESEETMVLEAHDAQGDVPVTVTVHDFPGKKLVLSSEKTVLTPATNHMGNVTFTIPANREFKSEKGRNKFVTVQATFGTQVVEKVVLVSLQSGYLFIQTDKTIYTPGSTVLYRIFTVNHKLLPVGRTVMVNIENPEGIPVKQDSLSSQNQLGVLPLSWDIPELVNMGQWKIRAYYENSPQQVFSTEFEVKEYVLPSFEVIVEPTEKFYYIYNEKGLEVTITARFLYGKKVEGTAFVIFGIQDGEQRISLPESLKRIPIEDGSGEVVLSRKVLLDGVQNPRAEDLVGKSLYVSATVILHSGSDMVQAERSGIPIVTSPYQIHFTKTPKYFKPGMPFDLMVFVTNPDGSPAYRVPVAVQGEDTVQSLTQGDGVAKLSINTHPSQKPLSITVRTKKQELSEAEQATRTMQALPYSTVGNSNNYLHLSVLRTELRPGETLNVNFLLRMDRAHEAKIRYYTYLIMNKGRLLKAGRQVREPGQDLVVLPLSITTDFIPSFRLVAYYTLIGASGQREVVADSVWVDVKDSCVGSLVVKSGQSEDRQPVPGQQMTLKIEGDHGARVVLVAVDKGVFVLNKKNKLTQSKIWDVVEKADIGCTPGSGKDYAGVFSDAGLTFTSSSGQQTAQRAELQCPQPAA
T1 sequence (P01024 749-1663 limits assumed, chain 2 of 2): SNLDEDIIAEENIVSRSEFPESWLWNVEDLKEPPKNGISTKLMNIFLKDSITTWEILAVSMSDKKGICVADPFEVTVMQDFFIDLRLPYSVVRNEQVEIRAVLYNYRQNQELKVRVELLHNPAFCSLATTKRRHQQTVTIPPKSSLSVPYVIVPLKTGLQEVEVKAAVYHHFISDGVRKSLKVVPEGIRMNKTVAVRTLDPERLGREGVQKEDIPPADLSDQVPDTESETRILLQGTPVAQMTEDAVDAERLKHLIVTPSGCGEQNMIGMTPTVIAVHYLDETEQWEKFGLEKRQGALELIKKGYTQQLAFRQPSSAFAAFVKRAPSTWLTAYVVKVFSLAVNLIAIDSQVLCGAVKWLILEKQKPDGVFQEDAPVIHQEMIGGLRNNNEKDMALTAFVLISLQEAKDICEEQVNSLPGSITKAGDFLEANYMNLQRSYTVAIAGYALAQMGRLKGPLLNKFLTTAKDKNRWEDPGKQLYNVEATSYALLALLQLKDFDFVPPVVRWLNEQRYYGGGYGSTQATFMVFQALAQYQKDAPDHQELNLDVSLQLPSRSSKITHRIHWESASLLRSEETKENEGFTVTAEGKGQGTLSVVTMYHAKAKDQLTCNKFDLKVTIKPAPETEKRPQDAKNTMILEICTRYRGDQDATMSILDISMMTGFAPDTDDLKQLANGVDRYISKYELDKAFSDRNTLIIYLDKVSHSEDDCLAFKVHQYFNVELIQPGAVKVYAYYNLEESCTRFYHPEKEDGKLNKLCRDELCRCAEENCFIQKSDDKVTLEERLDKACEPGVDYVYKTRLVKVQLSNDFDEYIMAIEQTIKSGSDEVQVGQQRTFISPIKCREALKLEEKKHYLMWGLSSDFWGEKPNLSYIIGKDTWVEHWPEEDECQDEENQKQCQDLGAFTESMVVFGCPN

B1: Complement Factor H (FH) (other)
chain: EDCNELPPRRNTEILTGSWSDQTYPEGTQAIYKCRPGYRSLGNVIMVCRKGEWVALNPLRKCQKRPCGHPGDTPFGTFTLTGGNVFEYGVKAVYTCNEGYQLLGEINYRECDTDGWTNDIPICEVVKCLPVTAPENGKIVSSAMEPDREYHFGQAVRFVCNSGYKIEGDEEMHCSDDGFWSKEKPKCVEISCKSPDVINGSPISQKIIYKENERFQYKCNMGYEYSERGDAVCTESGWRPLPSCEEKSCDNPYIPNGDYSPLRIKHRTGDEITYQCRNGFYPATRGNTAKCTSTGWIPAPRCTLKPCDYPDIKHGGLYHENMRRPYFPVAVGKYYSYYCDEHFETPSGSYWDHIHCTQDGWSPAVPCLRKCYFPYLENGYNQNYGRKFVQGKSIDVACHPGYALPKAQTTVTCMENGWSPTPRCIRVKTCSKSSIDIENGFISESQYTYALKEKAKYQCKLGYVTADGETSGSITCGKDGWSAQPTCIKSCDIPVFMNARTKNDFTWFKLNDTLDYECHDGYESNTGSTTGSIVCGYNGWSDLPICYERECELPKIDVHLVPDRKKDQYKVGEVLKFSCKPGFTIVGPNSVQCYHFGLSPDLPICKEQVQSCGPPPELLNGNVKEKTKEEYGHSEVVEYYCNPRFLMKGPNKIQCVDGEWTTLPVCIVEESTCGDIPELEHGWAQLSSPPYYYGDSVEFNCSESFTMIGHRSITCIHGVWTQLPQCVAIDKLKKCKSSNLIILEEHLKNKKEFDHNSNIRYRCRGKEGWIHTVCINGRWDPEVNCSMAQIQLCPPPPQIPNSHNMTTTLNYRDGEKVSVLCQENYLIQEGEEITCKDGRWQSIPLCVEKIPCSQPPQIEHGTINSSRSSQESYAHGTKLSYTCEGGFRISEENETTCYMGKWSSPPQCEGLPCKSPPEISHGVVAHMSDSYQYGEEVTYKCFEGFGIDGPAIAKCLGEKWSHPPSCIKTDCLSLPSFENAIPMGEKKDVYKAGEQVTYTCATYYKMDGASNVTCINSRWTGRPTCRDTSCVNPPTVQNAYIVSRQMSKYPSGERVRYQCRSPYEMFGDEEVMCLNGNWTEPPQCKDSTGKCGPPPPIDNGDITSFPLSVYAPASSVEYQCQNLYQLEGNKRITCRNGQWSEPPKCLHPCVISREIMENYNIALRWTAKQKLYSRTGESVEFVCKRGYRLSSRSHTLRTTCWDGKLEYPTCAKR
Regarding B1, the values for the Kd in the assay with C3b [1] and in the assay with C3b [2] were 0.58 µM and 0.583 µM, respectively.

B2: Complement Factor H isoform FHL-1 (other)
chain: EDCNELPPRRNTEILTGSWSDQTYPEGTQAIYKCRPGYRSLGNVIMVCRKGEWVALNPLRKCQKRPCGHPGDTPFGTFTLTGGNVFEYGVKAVYTCNEGYQLLGEINYRECDTDGWTNDIPICEVVKCLPVTAPENGKIVSSAMEPDREYHFGQAVRFVCNSGYKIEGDEEMHCSDDGFWSKEKPKCVEISCKSPDVINGSPISQKIIYKENERFQYKCNMGYEYSERGDAVCTESGWRPLPSCEEKSCDNPYIPNGDYSPLRIKHRTGDEITYQCRNGFYPATRGNTAKCTSTGWIPAPRCTLKPCDYPDIKHGGLYHENMRRPYFPVAVGKYYSYYCDEHFETPSGSYWDHIHCTQDGWSPAVPCLRKCYFPYLENGYNQNYGRKFVQGKSIDVACHPGYALPKAQTTVTCMENGWSPTPRCIRVSFTL
notes: also called factor H-like protein 1
As to B2, the dissociation constant (Kd) with C3b [3] came out at 1.2 µM; with C3b [4], 1.17 µM.

B3: CR1a (CCPs 8-10 of human Complement Receptor 1, secreted from HEK293 cells) (receptor)
chain: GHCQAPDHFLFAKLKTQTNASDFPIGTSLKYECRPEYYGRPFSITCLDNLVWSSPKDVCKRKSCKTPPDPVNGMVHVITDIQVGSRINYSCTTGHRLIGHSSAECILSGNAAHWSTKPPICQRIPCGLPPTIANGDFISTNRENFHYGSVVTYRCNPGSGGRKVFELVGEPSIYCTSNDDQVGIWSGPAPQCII
notes: also called Human Complement Receptor 1 CCPs 8-10; recombinant CR1a protein
On to B3, for which binding in the assay with C3b [5] was put at a Kd of 0.021 µM. This counts as double-digit nanomolar.

Broadly, the Kd is the constant that tells how readily two partners part at equilibrium. Read a low Kd as a tighter complex.
